{"source": "paper PMC7059301", "target": "Aspergillus niger α-xylosidase AxlA (Aspergillus niger)", "test": "crystal structure"}
{"substance": "Aspergillus niger α-xylosidase AxlA (enzyme)", "values": [{"measurement": "stoichiometry N", "result": 4}]}
